Earlier results in PMC4136965 (Journal of nuclear medicine : official publication, Society …, 2009).
Where two headings read alike, the source gives them in different places. Non-standard residues stand in square brackets, D forms with d. No end group written: not given here.

System: B16F10 xenografted melanoma
Conditions: mouse, in vivo

## ^18F-FB-Ac-Nle-Asp-His-D-Phe-Arg-Trp-Gly-Lys-NH2 ([dF]RWGK-NH2; not fully specified (N-terminus); also: 18F-FB label, position not given here) [^18F-FB-NAPamide]
1 h
  Tumor uptake: 1.19 ± 0.11 %ID/g
4 h
  Tumor uptake: 0.25 ± 0.05 %ID/g
